Target: cyXR, xanthorhodopsin from an Antarctic filamentous cyanobacterium (genus Pseudanabaena) (Pseudanabaena (Antarctic MAG, Dry Valleys))
Experiment: cryo-EM structure

With “cyXR, xanthorhodopsin from an Antarctic filamentous cyanobacterium (genus Pseudanabaena) (natural protein)” the stoichiometry N was 5.

Source: doi:10.1101/2025.06.10.658827
